Assay results taken from publication PMC2062912.

Molecular target: recombinant avidin (hen) (UniProt P02701)
Assay: SEC + other: electrophoresis; purified renatured rec-AV alone; conditions not given; details referred to Shin et al, 1997

recombinant avidin (from UniProt P02701 25-152) (natural protein)
stoichiometry N: 4
